Target: T1, purified XPO1-GST (GST-CRM1, Exportin 1) (human, UniProt O14980 1-1071)
T1 construct: Results and legend name the protein of the pull-down XPO1-GST / GST-XPO1, but the methods say that CRM1/XPO1 was cleaved from the beads with TEV protease; also called GST-XPO1; CRM1/XPO1; source: E. coli BL21, purified (glutathione Sepharose 4B)
Test: pull-down; purified RGS14 mixed 2 h with purified XPO1-GST and His-Ran Q69L-GTP; His-Ran captured on Ni-NTA; Coomassie and immunoblot
Details: both partners purified

T1 sequence (O14980 whole entry): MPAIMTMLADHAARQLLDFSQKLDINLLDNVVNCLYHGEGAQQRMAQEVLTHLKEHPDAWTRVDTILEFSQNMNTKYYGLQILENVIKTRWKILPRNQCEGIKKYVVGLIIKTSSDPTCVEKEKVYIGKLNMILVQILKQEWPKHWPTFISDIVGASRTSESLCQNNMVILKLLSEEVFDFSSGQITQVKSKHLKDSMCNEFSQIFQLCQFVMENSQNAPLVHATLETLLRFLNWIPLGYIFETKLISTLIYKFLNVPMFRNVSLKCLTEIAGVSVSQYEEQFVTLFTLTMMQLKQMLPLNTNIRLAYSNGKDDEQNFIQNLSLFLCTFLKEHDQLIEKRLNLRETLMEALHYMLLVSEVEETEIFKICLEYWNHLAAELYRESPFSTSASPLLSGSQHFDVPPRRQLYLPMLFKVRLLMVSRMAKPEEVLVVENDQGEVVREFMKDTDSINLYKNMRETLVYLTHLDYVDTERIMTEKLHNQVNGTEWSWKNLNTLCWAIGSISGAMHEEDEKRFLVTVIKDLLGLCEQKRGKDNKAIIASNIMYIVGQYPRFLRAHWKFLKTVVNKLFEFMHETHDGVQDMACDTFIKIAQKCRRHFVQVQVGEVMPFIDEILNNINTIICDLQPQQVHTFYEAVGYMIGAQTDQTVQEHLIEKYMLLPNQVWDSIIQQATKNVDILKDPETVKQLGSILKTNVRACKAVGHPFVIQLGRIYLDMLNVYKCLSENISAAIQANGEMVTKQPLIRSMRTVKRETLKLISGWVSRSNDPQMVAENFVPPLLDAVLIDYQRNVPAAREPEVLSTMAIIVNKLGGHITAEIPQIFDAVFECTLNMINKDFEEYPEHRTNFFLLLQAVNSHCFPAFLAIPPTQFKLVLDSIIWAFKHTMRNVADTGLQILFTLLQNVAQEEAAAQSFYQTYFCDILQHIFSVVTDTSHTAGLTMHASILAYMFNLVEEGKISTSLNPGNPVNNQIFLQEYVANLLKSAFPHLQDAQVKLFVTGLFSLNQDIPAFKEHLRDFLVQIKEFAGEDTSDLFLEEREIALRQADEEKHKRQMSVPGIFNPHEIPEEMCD

binding result: binds
B1: recombinant RGS14 WT, purified from E. coli (natural protein, rat, UniProt O08773 1-544, looked up)
chain: MPGKPKHLGVPNGRMVLAVSDGELTSTSGSQAQGEGRGSSLSIHSLPSGPSSPFSTDEQPVASWAQSFERLLQDPRGLAYFTEFLKKEFSAENVTFWQACERFQQIPASDTKQLAQEAHNIYHEFLSSQALSPVNIDRQAWLSEEVLAQPRPDMFRAQQLQIFNLMKFDSYARFVKSPLYQECLLAEAEGRPLREPGSSHLGSPDTARKKPKLKPGKSLPLGVEELGQLPLAEGRPLRKSFRREMPGGAVNSALRRESQGSLNSSASLDLGFLAFVSSKSESHRKSLGSGEGESESRPGKYCCVYLPDGTASLALARPGLTIRDMLAGICEKRGLSLPDIKVYLVGKEQKALVLDQDCTVLADQEVRLENRITFQLELVGLERVVRISAKPTKRLQEALQPILAKHGLSLDQVVLHRPGEKQLVDLENLVSSVASQTLVLDTLPDAKTREASSIPPCRSQGCLPRTQTKDSHLPPLSSSLSVEDASGSTGKRQTCDIEGLVELLNRVQSSGAHDQRGLLRKEDLVLPEFLQLPSQRPGSQEAPP
notes: RGS14, rat; expressed as MBP-TEV-RGS14 (the constructs paragraph names pLic-GST); The methods call the fusion MBP-TEV-RGS14 but purify it on a glutathione column and name the vector pLic-GST; the carrier may have been GST; also called WT RGS14; not shown: MBP, N-terminal, cleaved
